Source: publication PMC8146883, “A New Thermophilic Ene-Reductase from the Filamentous Anoxygenic Phototrophic Bacterium Chloroflexus aggregans” (Microorganisms, 2021)

Biological target: CaOYE, ene-reductase (Old Yellow Enzyme homologue) from Chloroflexus aggregans (Chloroflexus aggregans DSM 9485) (UniProt B8G5D6)
Assay: crystal structure; N-terminally His6-tagged CaOYE at 20 mg/mL in 50 mM Tris-HCl pH 8.0; crystals from 100 mM HEPES pH 7.0, 1.1 M sodium malonate, 0.5% Jeffamine ED-2003, 293 K; space group C2221, 4 molecules per asymmetric unit; dimer seen in the crystal packing

Sequence of CaOYE, ene-reductase (Old Yellow Enzyme homologue) from Chloroflexus aggregans (B8G5D6 whole entry): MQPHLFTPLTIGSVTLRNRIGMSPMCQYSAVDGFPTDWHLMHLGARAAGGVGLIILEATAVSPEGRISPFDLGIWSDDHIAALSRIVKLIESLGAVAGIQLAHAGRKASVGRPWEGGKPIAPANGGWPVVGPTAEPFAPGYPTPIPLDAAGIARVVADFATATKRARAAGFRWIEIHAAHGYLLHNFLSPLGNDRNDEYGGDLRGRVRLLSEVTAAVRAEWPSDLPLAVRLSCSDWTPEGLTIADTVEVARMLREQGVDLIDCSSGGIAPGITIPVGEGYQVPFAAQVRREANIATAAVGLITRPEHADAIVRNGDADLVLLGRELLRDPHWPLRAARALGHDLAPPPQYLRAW

stoichiometry N: 2
Substance: CaOYE, ene-reductase (Old Yellow Enzyme homologue) from Chloroflexus aggregans (from UniProt B8G5D6 1-354)
